For two proteins, Km and Vmax results are on record in PMC2871135, “Engineering Cofactor Preference of Ketone Reducing Biocatalysts: A Mutagenesis Study on a γ-Diketone Reductase from the Yeast Saccharomyces cerevisiae Serving as an Example” (International Journal of Molecular Sciences, 2010).

Substrate in data set [1]: NC(=O)C1=CN([C@@H]2O[C@H](COP(=O)(O)OP(=O)(O)OC[C@H]3O[C@@H](n4cnc5c(N)ncnc54)[C@H](O)[C@@H]3O)[C@@H](O)[C@H]2O)C=CC1
As to the kind of experiment: cells, lysate or membranes. It is filed as biochemical, Saccharomyces cerevisiae. Particulars: 10 mM 2,5-hexanedione as co-substrate, sodium phosphate pH 7.0, 30 °C, cofactor varied 0.1-4 mM, enzyme enriched from E. coli extract, not homogeneous.

Substrate in data set [2]: NC(=O)C1=CN([C@@H]2O[C@H](COP(=O)(O)OP(=O)(O)OC[C@H]3O[C@@H](n4cnc5c(N)ncnc54)[C@H](OP(=O)(O)O)[C@@H]3O)[C@@H](O)[C@H]2O)C=CC1
As to the kind of experiment: cells, lysate or membranes. Particulars: 10 mM 2,5-hexanedione as co-substrate, sodium phosphate pH 7.0, 30 °C, cofactor varied 0.1-4 mM, enzyme enriched from E. coli extract, not homogeneous. It is filed as biochemical, Saccharomyces cerevisiae.

Where a chain is given by its changes, count along the chain named. In names and notes the source's numbering stands.

B1: Gre2p (Saccharomyces cerevisiae S288C) (protein)
chain: MSVFVSGANGFIAQHIVDLLLKEDYKVIGSARSQEKAENLTEAFGNNPKFSMEVVPDISKLDAFDHVFQKHGKDIKIVLHTASPFCFDITDSERDLLIPAVNGVKGILHSIKKYAADSVERVVLTSSYAAVFDMAKENDKSLTFNEESWNPATWESCQSDPVNAYCGSKKFAEKAAWEFLEENRDSVKFELTAVNPVYVFGPQMFDKDVKKHLNTSCELVNSLMHLSPEDKIPELFGGYIDVRDVAKAHLVAFQKRETIGQRLIVSEARFTMQDVLDILNEDFPVLKGNIPVGKPGSGATHNTLGATLDNKKSKKLLGFKFRNLKETIDDTASQILKFEGRI
notes: GRE2 subcloned from p423-GPD-YOL151w into pRSET B, expressed in E. coli BL21(DE3) pLysS
The Km is the substrate concentration at which the rate is half of its maximum. A word on the Vmax: it is the rate approached at saturating substrate. With B1, the Michaelis-Menten constant (Km) in data set [1] was determined as 1450 µM; in data set [2], 38 µM. Besides, the maximal velocity (Vmax) in data set [1] turned out to be 0.081 µmol/min/mg; in data set [2], 0.288 µmol/min/mg.

B2: Gre2p (Saccharomyces cerevisiae S288C; N9E) (protein)
chain: B1 chain with N9E
notes: as for B1
In the case of B2, in data set [1], the Km turned out to be 960 µM and the maximal velocity (Vmax) stood at 0.147 µmol/min/mg. Further, in data set [2], the Km was found to be 1520 µM and the Vmax was found to be 0.272 µmol/min/mg.
